Reference: patent US9113649B2, “Food additive comprising an amidase for detoxifying ochratoxin” (DuPont Nutrition Biosciences ApS, priority 2010, dated 2015)

Key:
[1] = assay type: biochemical; conditions: same concentration, optimum conditions, one hour
Experimental: The enzyme solution of Amidase 2 mat obtained after AEX was tested on ochratoxin B at the same concentration under optimum conditions for one hour. The degrading rate with ochratoxin B was 8% compared to OTA.

[2] = degradation of OTA in milk by amidase 2 mat; assay type: biochemical; conditions: light milk; 47 ppb at start; 0.22 μg protein; 40° C., 2.5 hr
Experimental: Light milk (1.5% fat, protein 3.4 g, carbohydrate 4.7 g Calcium 120 mg, Phosphorus 95 mg in 100 ml) from Aria Foods Amba (Aarhus, Denmark) 0.15 ml, 3 μl OTA (2.5 μg/ml), 7.5 μl purified amidase 2 mat (from the broth of A. niger harboring the amidase 2 gene) containing 0.22 μg protein were mixed and reacted at 40° C. for 2.5 hr. The OTA decreased from 47 ppb at start to undetectable level (<2 ppb) after 2.5 hr incubation. OTA analysis by HPLC was described in the materials and methods section above.

[3] = OTA degradation as a function of amidase 2 mat concentration; assay type: biochemical
Experimental: The amidase used was purified from the broth of transformant 13 (438aa protein referred to as amidase 2 mat).
Ochratoxin A (OTA) degrading activity of amidase 2 mat purified from the fermentation broth of A. niger harboring the amidase 2 gene as a function of its concentration is shown in FIG. 15. It can be seen from FIG. 15 that the degradation of OTA was amidase 2 mat concentration dependent. One can also see that after 30 min with an amidase 2 mat concentration of 160 ng/ml the OTA decreased by 83%. From the linear region of FIG. 15 the calculated specific activity for amidase 2 mat was 900 nanomole OTA hydrolyzed per min per mg protein at pH7.0 and 40° C. at an OTA concentration of 1 μg/ml reaction mixture. The reaction for FIG. 15 was performed in 0.1 Mops-NaOH (pH 7.0) and 40° C. for 30 min before it was stopped by adding equal volume of acetonitrile containing 0.2% acetic acid and analyzed on RP-HPLC on a C18 column as described in the Material and Method section.

[4] = detoxification of OTA in corn flour by amidase 2 mat; assay type: biochemical; conditions: from 38 ppm, 30° C., 20 hr, pH7.0
Experimental: (§1) The reaction mixture in 1.5 ml eppendorf tubes (C1-3) comprised 60 mg corn flower, 200 μl Mops-NaOH (0.2 M pH7.0), 40 μl amidase 2 mixture (which was mixture of an equal volume of the broth of A. niger transformant having amdiase 2 gene 3, 4, 7, 8, 10, 11, 13, 14, and 15), 20 μl OTA (0.5 mg/ml). Total volume of the three components was 260 μl; final OTA was 38 μg/ml or 38 ppm (ppm, parts per million). Control: Tubes of Controls (C-4-6) were the same as C1-3 except that the amidase preparation (the broth) was replaced with water.
(§2) The reaction was performed at 30° C. with skaking for 20 hr before the addition of equal volume of acetonitrile 260 μl containing 0.2% acetic acid to stop the reaction and to extract the OTA. After centrifugation and filter, the filtrate was analyzed on HPLC.

[5] = detoxification of OTA in corn-soy based feed by amidase 2 mat; assay type: biochemical; conditions: from 38 ppm, 20 hr incubation
Experimental: as §1, §2
The tests of amidase 2 mat with soy-corn based feed (whose composition is given in Table 3) contaminated with OTA was exactly as the test with corn flour, that is, tubes S1-3 (experimental) were with the broth while for tubes S 5-6 (controls) water replaced the broth. After 20 hr incubation, the OTA level was reduced from 38 ppm to 6.6 ppm, a reduction of 6 times or 82%.

[6] = sensitivity of OTA hydrolysis to CaCl2 and EDTA; assay type: biochemical
Experimental: One protease inhibitor cocktail (PIC) tablet (Roche Applied Science, Mannhein, Germany) was dissolved in 1.5 mL. milliQ water to obtain a 7× stock solution. For formamidase inhibition assay, instead of 100 μL milliQ water normally employed, 20 μL of 7×PIC stock solution and 80 μL of milliQ water were mixed with other components listed in formamidase activity assay section. For OTA degrading activity, 35 μL 7×PIC solution were mixed with 210 μL OTA 1 μg/mL and 5 μL enzyme solution. […] For controls, inhibitor solution is replaced either by milliQ water for formamidase activity assay or MES-NaOH pH7 buffer for OTA degrading activity.
Also it is known that the OTA degrading activity in the Amano™ lipase product is sensitive to EDTA.
[…] The reaction was performed at 37° C. for 30 min and stopped by adding 150 μl acetonitrile containing 0.2% acetic acid. OTA and its product OT-alpha (=ODα) were analyzed on RP-HPLC on C18 column with an injection of 5 μl. Positive control (PC) contained no additives other than the buffer the amidase and OTA. Blank contained only buffer and OTA.

[7] = pH and temperature stability of amidase 2 at 70° C.; assay type: biochemical; conditions: between pH 6 and 9; pre-incubated 30 min; stability decreased with the decrease in pH
Experimental: The reaction mixture contained 5 μl amidase 2 mixture (155 μg protein/ml), 45 μl 67 mM phosphate buffer at either pH3, 4, 5, 6, 7, 8 or 9. The reaction mixes were incubated at 70° C. for 30 min, before 2 μl 0.5 mg/ml OTA in ethanol and 80 μl 0.2M Mops pH 7.0 were added and the samples incubated at 30° C. for 60 min. The reaction was stopped by adding 130 μl acetonitrile containing 0.2% HAC, filtered and analysed by RP-HPLC.
Further more the recombinant amidase 2 was quite stable at 70° C. between pH 6 and 9. The stability decreased with the decrease in pH (FIG. 13). Activity was assayed at pH 7.0 and 30° C. The pre-incubation mixture contained 5 μl amidase 2 mixture (155 μg protein/ml), 45 μl 67 mM phosphate buffer (pH3, 4, 5, 6, 7, 8 and 9). The samples were pre-incubated at 70° C. for 30 min. After cooling to 30° C., 2 μl 0.5 mg/ml OTA in ethanol and 80 μl 0.2M Mops-NaOH (pH 7.0) were added and the reaction incubated at 30° C. for 60 min. The reaction was stopped by adding 130 μl acetonitrile containing 0.2% HAC, filtered and injected on RP-HPLC with an injection of 5 μl to monitor the remaining OTA.

[8] = heat stability of amidase 2 at 80° C.; assay type: biochemical; conditions: 5-30 min pre-incubation at 80° C., pH7.0
Experimental: The pre-incubation mixture in a 1.5 ml ependorpf tube contained 5 μl of the amidase 2 mixture (155 μg protein/ml), and 45 μl 67 mM phosphate buffer pH7.0. The samples were pre-incubated at 80° C. for 0, 5, 10, 15, 20, 25 and 30 min. After cooling to 15° C., 50 μl 67 mM phosphate buffer and 25 μl OTA (1 μg/ml) were added to start the reaction this was incubated at 30° C. for 60 min, the reaction was stopped by the addition of 130 μl acetonitrile containing 0.2% HAC. An injection volume of 10 μl was used for RP-HPLC analysis of remaining OTA after filtering.
The reaction mixture of 5 μl enzyme plus 45 μl 68 mM sodium phosphate (pH7.0) was incubated at 80° C. for 0-30 min before adding another 50 μl the phosphate buffer and 25 μl 1 μg/ml OTA, and incubated at 30° C. for 60 min. The reaction was stopped by adding 130 μl acetonitrile containing 0.2% acetic acid (v/v). The reaction mixture was filtered and injected (10 μl) for HPLC analysis. Ctrl was control where no amidase was added.

[9] = pH optimum of amidase 2 in degrading OTA; assay type: biochemical; conditions: 30° C., 60 min; followed by pH 6 and 8; pH 5 and 9
Experimental: The reaction mixture contained 5 μl amidase 2 mixture (a mixture of the intracellular fractions of transformant 3, 4, 7-8, 10-11 and 13-15) with a protein concentration of 155 μg protein/ml), 0.1 ml 67 mM phosphate buffer (pH3, 4, 5, 6, 7, 8 and 9), 25 μl OTA (1 μg/ml). The reaction was performed at 30° C. for 60 min and stopped by the addition of 0.13 ml acetonitrile containing 0.2% HAC. An injection volume of 10 μl was used for RP-HPLC analysis of remaining OTA after filtering.
Five microliters of enzyme solution were combined with […] OTA 1 μg/mL diluted in different buffers: 50 mM sodium acetate buffer (pH 4, 4.5, 5 and 5.5); 50 mM MES-NaOH buffer (pH 6, 6.5 and 7); 50 mM Tris-HCl buffer (pH 7.5, 8 and 8.5).

[10] = degradation of OTA in corn flour by amidase 2 sig; assay type: biochemical; conditions: 800 ppb at the start, 3.1 μg protein, 37° C., 22 hr
Experimental: For corn flour, 50 mg corn flour was added 210 μl water, 8 μl OTA (25 μg/ml) and 20 μl amidase 2 sig (3.1 μg protein), mixed and incubated at 37° C. for 22 hr. The OTA concentration decreased from 800 ppb at the start to 14 ppb at the end. OTA analysis by HPLC is described in the materials and methods section above.

[11] = degradation of OTA in DDGS by amidase 2 sig; assay type: biochemical; conditions: DDGS slurry pH 6.7; 800 ppb at start; 3.1 μg protein; 37° C., 22 hr
Experimental: For DDGS, 1 g was suspended in 10 ml water, pH adjusted to 6.7 with NaOH. To 210 μl of this slurry was added 8 μl OTA (25 μg/ml) and 20 μl amidase 2 sig (3.1 μg protein), mixed and incubated at 37° C. for 22 hr. The OTA concentration decreased from 800 ppb at start to 5 ppb at the end. OTA analysis by HPLC was described in the materials and methods section above.

B1: amidase 2 mat: secreted mature 438 amino acid amidase 2 from A. niger, MW about 47 kDa, N-terminal 42 amino acids cleaved (protein)
chain: STDEAKVTIIYAGLLIPGDGEPLRNAALVISDKIIAFVGSEADIPKKYLRSTQSTHRVPVLMPGLWDCHMHFGGDDDYYNDYTSGLATHPASSGARLARGCWEALQNGYTSYRDLAGYGCEVAKAINDGTIVGPNVYSSGAALSQTAGHGDIFALPAGEVLGSYGVMNPRPGYWGAGPLCIADGVEEVRRAVRLQIRRGAKVIKVMASGGVMSRDDNPNFAQFSPEELKVIVEEAARQNRIVSAHVHGKAGIMAAIKAGCKSLEHVSYADEEVWELMKEKGILYVATRSVIEIFLASNGEGLVKESWAKLQALADSHLKAYQGAIKAGVTIALGTDTAPGGPTALELQFAVERGGMTPLEAIKAATANAPLSVGPQAPLTGQLREGYEADVIALEENPLEDIKVFQEPKAVTHVWKGGKLFKGPGIGPWGEDARNPFL
modifications: Aspergillus niger
notes: secreted mature 438 amino acid amidase 2 from A. niger, MW about 47 kDa, N-terminal 42 amino acids cleaved
degrading rate with ochratoxin B compared to OTA [1]: 8%
OTA after incubation [2]: < 2 ppb
OTA decrease ([3]; 160 ng/ml amidase 2 mat, 30 min, pH 7.0, 40° C.): 83%
specific activity ([3]; pH7.0 and 40° C., OTA 1 μg/ml reaction mixture, calculated from linear region of FIG. 15): 900 nanomole OTA hydrolyzed per min per mg protein
remaining OTA [4]: less than 2 ppb
OTA level after incubation [5]: 6.6 ppm
inhibition of activity in the hydrolysis of OTA ([6]; 8 mM CaCl2, enzyme purified from the Amano™ lipase product): around 40%
inhibition of activity in the hydrolysis of OTA ([6]; 8 mM CaCl2, enzyme purified from the broth of transgenic A. niger): around 40%
inhibition by extra EDTA ([6]; data not shown): inhibited

B2: recombinant amidase 2: amidase 2 from transgenic A. niger intracellular preparation, a mixture of intracellular fractions of transformants 3, 4, 7-8, 10-11 and 13-15 (protein)
chain: MVRRIASATPMVQSPMSPLGTTYCVRPNPVSLNLQRRPLVIASTDEAKVTIIYAGLLIPGDGEPLRNAALVISDKIIAFVGSEADIPKKYLRSTQSTHRVPVLMPGLWDCHMHFGGDDDYYNDYTSGLATHPASSGARLARGCWEALQNGYTSYRDLAGYGCEVAKAINDGTIVGPNVYSSGAALSQTAGHGDIFALPAGEVLGSYGVMNPRPGYWGAGPLCIADGVEEVRRAVRLQIRRGAKVIKVMASGGVMSRDDNPNFAQFSPEELKVIVEEAARQNRIVSAHVHGKAGIMAAIKAGCKSLEHVSYADEEVWELMKEKGILYVATRSVIEIFLASNGEGLVKESWAKLQALADSHLKAYQGAIKAGVTIALGTDTAPGGPTALELQFAVERGGMTPLEAIKAATANAPLSVGPQAPLTGQLREGYEADVIALEENPLEDIKVFQEPKAVTHVWKGGKLFKGPGIGPWGEDARNPFL
modifications: Aspergillus niger
stability at 70° C. [7]: quite stable
activity remained after pre-incubation [8]: more than 80%
pH of highest enzyme activity [9]: 7.0 pH

B3: amidase 2 sig: full length 480 amino acid A. niger amidase 2 with N-terminal or signal sequence, MW about 51 kDa; intracellular fraction (protein)
chain: B2 chain
modifications: Aspergillus niger
notes: intracellular fraction
OTA concentration at the end [10]: 14 ppb
OTA concentration at the end [11]: 5 ppb
inhibition by CaCl2 ([6]; 8 mM CaCl2, intracellular fraction of transgenic A. niger): not appreciably inhibited
inhibition by CaCl2 ([6]; 20 mM CaCl2, 37° C., 30 min, pH7.0): no inhibition
inhibition by EDTA ([6]; 20 mM EDTA, 37° C., 30 min, pH7.0): no inhibition
